For orientation: stoichiometry N means the number of molecules, sites or subunits per partner or assembly.

Read-outs that look alike come from different tables or passages of the source.

Drawing on doi:10.64898/2025.12.07.692841, this text covers stoichiometry N for two substances.

Holding throughout (experiment): crystal structure
In experiment [1] the target is PII-nitrogen regulatory protein NifI2 from Methanocaldococcus infernus (Methanocaldococcus infernus strain DSM 11812).
The target is the same in experiment [2]. This is another data set of the same source.
Experiment [3] concerns the target nitrogenase reductase NifH (dimer) from Methanocaldococcus infernus (Methanocaldococcus infernus strain DSM 11812).

Turning to “PII-nitrogen regulatory protein NifI2 from Methanocaldococcus infernus (natural protein)”, the stoichiometry N in experiment [1] and in experiment [2] was 2 throughout.

“nitrogenase reductase NifH (dimer) from Methanocaldococcus infernus (enzyme)” gave a stoichiometry N in experiment [3] of 2.
